The values that follow come from paper doi:10.1101/2021.03.28.437436.

Square brackets hold non-standard residues; d marks the D form. Ends that are not written are not given here. pY = N[C@@H](Cc1ccc(OP(=O)(O)O)cc1)C(=O)O

The target in assay [1] is Recombinant catalytically inactive S195A thrombin mutant (UniProt P00734). Nature of the assay: other fluorescence titration.
The target in assay [2] is N-terminal 6xHis-tag derivative of human α-synuclein (6xHis-αSyn) (human) (UniProt P37840). Nature of the assay: SPR. A general note: In SPR one partner is held on a chip, and binding of the other changes the refractive index at the surface.
Assay [3] has as its target Nα-fluoresceinated hirugen, [F]-hirugen. In words: other fluorescence titration.
The target of assay [4] is Human plasma α-thrombin (αT) (human). In words: other fluorescence titration.

The term Kd denotes the equilibrium constant for the complex coming apart. Low values mean a tighter complex, high ones a looser complex.

In the case of “Hirugen (C-terminal peptide 54-65 of hirudin HV1)”, the increase of [F]-hirugen fluorescence on displacement in assay [1] turned out to be 65%.

For “Recombinant catalytically inactive S195A thrombin mutant (from UniProt P00734) (enzyme)”, the Kd in assay [2] is 0.044 µM; in assay [3], 0.03 µM. In assay [2], βT-thrombin (βTT) (enzyme) showed a fold decrease in affinity against S195A of 1.5 fold. Turning to VRPEHPAETE[pY]DSL[pY]PEDDL [Fibrinogen γ’-peptide (C-terminal peptide 408-427 of fibrinogen elongated γ-chain splice variant)], the fold decrease in affinity with 20 μM αSyn against no αSyn in assay [4] turned out to be 3 fold.
